Experimental data from the DeepSol protein solubility set.

test: soluble on expression in E. coli; label from the status in PepcDB or PDB records

Row | Sequence | soluble on expression in E. coli
1 | MGSDKIHHHHHHMITVVGGTFSKLHKGHKALLEKAIETGNEIVIGLTSDEYVKRNKVYPAIPYKERYRNLYNYMVKKTNKFRIRPIDDRNGNAPYERDYEIIVVSPETYQRSLKINEIRIQNGLPPLKIIRVPYVLAEDLFPISSTRIINGEIDGNGRRLKPVKVAIATNNSAKLKATNDFFHKLMKNFDVIQNTDYKLETQQPFGEVTMNMATKRAMQSLGDNDYAIGIESGIVYERFSRKYFDFHYCVVIDRFGNVTRGSSSGFEVPDRIIDLIKRDMSFSQAYGKVIDTNGIDDSTGIVGKISNGRVRRYDLIMECIRNAFIPRFDPDFYDTTYTPP | not soluble
2 | MSLGAWPTAPITIVVPFAAGQTGDIIARLLGKELAERLKQPFVVDNKGGGGGRIGTAFVAKAKPDGYTLLMTSTGPYAIAPALYPRTMQYDPVRDFTGIAETATTPQIIAVSPKSGINTFADLVKQAKKSDMSYGSAGNGSTQHLTMELLKKELNFPLVHVPFKGSSESKTQVISGMIPVTSDSLPAIYTNIKSGQMKAIAVVDKQRSAYLPDVPTLAESGFPSLSTVAFFGLVAPKNTPKEVVNLLNKNLTEIYRTPDFQQKMKELAMTPPAEKTAEQFTAYLTEEVARWKKIVQDSNVKVEEGHHHHHH | soluble
3 | MAHHHHHHMSTSTTHVQKETILSLNYYEIFSLDPSARDVDFGSVHRAYRRFALLFHPDKDPSPAARAAFERVKLAAETLTDPQMRREYDEELLQKLQRSTGTGATSAWQRQQRDVMEEEALAADMILRQKEAATAAKAAAKREEELEKEAAAKQMLHELTNALTTPFKRMEEELVHEWEIDEDLLSMKEKEVESLLQKLREYNEGQGRHGRSVDAHTCGTKRRRSEEETASKV | soluble
4 | RLPFMAQYDRLGLTRSNTSCHNNTGKQCLWGDTEKQPELLVLGDSHADHYKTFFDAVGKKEKWSATMVSADACAYVEGYASRVFQNWAACRAVYRYAEEHLPRYSKVVLAMRWGSQMPENSRSLAYDAGFFQKFDRMLHKLSSEKQAVYLMADNLASSYNVQRAYILSSRIPGYRQALRPDDESTLKANARIRELAAKYPNVYIIDAAAYIPADFQIGGLPVYSDKDHINPYGGTELAKRFSEKQRFLDTRHNH | not soluble
5 | MGHHHHHHSHMKNYYYFLGQGLTLSPRLECSSTISAHCNLHLLGSSNSPVAASPVAGTTGTCHHDWLIFVFLVETGFHHIGQTGLEFLTSGDPPTLASKSAGITGVSHCAWPTFLLNDMRHSFNKNLVIIFYVPAIS | not soluble
6 | HRPEGLEQLEAQTNFTKRELQVLYRGFKNECPSGVVNEETFKQIYAQFFPHGDASTYAHYLFNAFDTTQTGSVKFEDFVTALSILLRGTVHEKLRWTFNLYDINKDGYINKEEMMDIVKAIYDMMGKYTYPVLKEDTPRQHVDVFFQKMDKNKDGIVTLDEFLESCQEDDNIMRSLQLFQNVM | soluble
7 | SAAAIAASALPGAFGRLVSVCSRSILASQGSGSASLWSASRRFNSQSASYPQGYVPKTSLSSPPWQEVVLPDPVEETRHHAEVVKRVNELIATGQYGRLFAVVHFASHQWKVTAEDLILIENELDIKCGERIRLEKVLLVGADNFTLLGKPLLRKELVRVEATVIEKTESWPKINMKFRKRKNFRKKKIIVNPQTILRINTIEIAPRLL | soluble
8 | MGSDKIHHHHHHMNDALITDALIRGRHAKRGFHRERPVPLETVRDILAVAKYAPSSSNTQPWRCYVVIGDARDRLANAAVEAYRADPENLTPEYPFFPKPLHEPYSARFNTFRGQLGDAQGVPRSDKAGRRRDVERQFRFFDAPIGLIFTMDRRLEWASFLCYGCFLQNIMLAARARGLDTCPQQIWSLQYAVLREQLDIPEGEMVVAGMSLGYADDSLPENNMALRRLELEEFVSVIEG | not soluble
9 | MGSDKIHHHHHHMRRVSIYELDPGMIVARAIFNSEERVLLHAGVELNEKYIHGLQKAGVMSVYIRDELFDESDAVSDIISEKTRLKAIRTLKESFNLLEKKHQLNLHAVKNTVDEIIDEIIANPNTLVSLTDIRSFDDYTYAHSVNVGVLSIMSGVSLNYERSQLKELGVGALLHDIGKIKIDKNILNKPDDLSPEEFTEIKQHSKAGFDILRQHSGLSLLSAHIAFQHHERWDGQGYPRQLSGEEIHEYARIVAVADVYDALVADRPYRPAYSVTQAISILKRMTGLFLDPQCVKAFLNNIAVYPLGCLLELNTGELGAVIDINRKTPAQPVVRVLYDRNWRLLTPYELDLSKNSALVVKNVLSERQIKELKKNL | not soluble
10 | MMKLRIEIDGNLEETEIVIKTPTLTDEIADLQRLLQESKAPRLTFYKGTGEYYLDLSEILFFETEGSKIYAHNQKEAYEVRLKLYELESILPRYFNRVSKSTIANIRQIYSVDKSFSGTGTISFYQTHKEVHVSRHYQSLLKENLRNMR | not soluble
11 | MSLTGRAFAIPLRTRFRGITVREGMLVRGAAGWGEFSPFAEYGPRECARWWAACYEAAELGWPAPVRDTVPVNATVPAVGPEEAARIVASSGCTTAKVKVAERGQSEANDVARVEAVRDALGPRGRVRIDVNGAWDVDTAVRMIRLLDRFELEYVEQPCATVDELAEVRRRVSVPIAADESIRRAEDPLRVRDAEAADVVVLKVQPLGGVRAALRLAEECGLPVVVSSAVETSVGLAAGVALAAALPELPYACGLATLRLLHADVCDDPLLPVHGVLPVRRVDVSEQRLAEVEIDPAAWQARLAAARAAWEQVEREPGPEGHHHHHH | soluble
12 | MSELILHHYPTSLFAEKARLMLGFKGVNWRSVTIPSIMPKPDLTALTGGYRKTPVLQIGADIYCDTALMARRLEQEKASPAFYPQGQEFAVAGLAAWADSVLFLHAVSLVFQPESMAVRFAKVPPDAAKAFIADRSMLFNGGTASRPPVEQVKHQWPTFMSRLESQLSHGGDFLFGAPSIADFSVAHTLWFLKQTPVTAPFVDDYPSVSVWLDRVLGFGHGSLSDLSSAAAIEIASNATPAPLPDETFIDPNGFKAGDKVAIAAVDYGVEAVEGELMFTGREELILRREDNRAGVVHVHFPRLGFRVEKR | soluble
13 | GEPVEFQPKYRDLMLVVDLSGSMQKEDMNLDGEYIDRLSAVKKVLSDFVAKRKGDRLGVVLFGDHAYLQTPLTADRQTVIQQIKQTVIGLVGQRTAIGDGIGLGTKTFVDSDAPQRVMILLSDGSNTAGVLDPIEAAEIAKK | not soluble
14 | MSLGRFQTLDYEIPESMQRSWQDIVNLLAQIADVPTTLIMRVHQNHIEVNTSSDTQGNPYKAGDKEDLGHGLYCEHVIETKSQLVVPDALADEKWSNNPDIKLGMLSYCGLPLFWPNGETFGTICMLDSKANEYSETYRQLLNTFKDSIEAQLAVVYQQYKLLRLNSELKNRVENRTTDLAQLSFSLTQEIDRRKAAERQVNYQKTHDQGTGFLNRAALEAVVEDTLQSLEHGHQSLIVINVGFSNARSIQTRYGFEAFDEILKEFRKRLGMNDSNYFITGRPSSNDLVLLLWGEDADSKLHNLLDKITNISVGNFYINDTEVHLHSYVGVVQAHRSSSAKQLLQNACYAMLLCKESGEAYSYFCESHTHEGHHHHHH | soluble
15 | MEEFTWRVGGPQGGGIETAATLFARAVGKGGWWVATKREYHSNIMGRHSYLDVRLARKPVQAFRERVDFLVALDGETLARHLGEVREGGVVLYDPKVLELTLHKLPMLDHRVAEDLAKRLGQADPSLKEVLQAYAEAGVQPLPYPFEAVADRIGEALGVPSLKARRTLNTIAVAASLHLLSYPLEPLLQALALQFRGEVLELNRKVAEAVYREEAPRLPFRLEVLGPAPGRIYLTGAQAAALGKLAGGLRFQTYYPISPATDESVFLEAHTHLPGADVAVVQTEDEIAAVNMAVGAALAGAKAATATSGPGFSLMAEGLGFAGMIEAPLVVTLYQRGGPSTGLPTRTEQGDLMFAIRGGHGEYPRLVLASGDILDAFLDAQKALAWAWRYQTVVVHLLDKFLASLAQSLPKEALKVLSLDGEKRLSPREGFGPYQRYAPGEDGLSPFIPIGTPGGFYWMTSDEHDPLGHITEDVELRELQMEKRMEKLELARKEIPLEDQYTLFRDGEVLVLGWGTVKGTLLEALDHLEGVGYLHLRLLWPFPRIAPLLEGKTLVTVEHNYSGQLADLVQQETLKRVHHRVVKYNGRPITLEEAVEALKAVREGRAPERLVLRKGV | soluble
16 | MSLTTMAEHFLTLLVVPAIKKDYGSQEDFTQVWNTTMKGLKCCGFTNYTDFEDSPYFKENSAFPPFCCNDNVTNTANETCTKQKAHDQKVEGCFNQLLYDIRTNAVTVGEGHHHHHH | not soluble
17 | ADLGTENLYFQSMKPSPEEAQLWSEAFDELLASKYGLAAFRAFLKSEFCEENIEFWLACEDFKKTKSPQKLSSKARKIYTDFIEKEAPKEINIDFQTKTLIAQNIQEATSGCFTTAQKRVYSLMENNSYPRFLESEFYQDLCKKPQ | soluble
18 | MKLATKKNGTRDGLLMVVSKDLTRCVPATEVFHPRNLAPTMQVALDNWEAVAPQLEEIYTALNNGTVAGFEEFEAHYCESPLPRAYQWADGSAYVNHVELVRKARGAEMPESFWTDPLMYQGGSDAFIGPCDNIEFASDEWGIDFEGEVAVVTGDVPMGASIAEAQESIRLIMLVNDVSLRGLIPAELAKGFGFFQSKPSSAFSPVAVTPDELGDEWYENKVHLPLVSTYNHKPFGRPNAGVDMTFDFADLIVHATKTRPLSAGAIIGSGTVSNKQGTDHGTSIEEGGVGYSCIAEVRMIETIRDGKPTTNFMSFGDSIKLEMFDVEGNTIFGAIDQQVSQYLKH | not soluble
19 | VSPRPGPAGRGPAPCRCADLHSLCVDSHALRRDGMRFLHTADWQLGMTRHFLAGDAQPRYSAARRDAVAGLKALAADVGAEFVVVAGDVFEHNQLAPQIVGQSLEAMRVIGLPVYLLPGNHDPLDASSVYTSTLFRAERPDNVVVLDRAGVHEVRPGVQIVAAPWRSKAPTTDPVAEVLAGLPTDAAIRLLVAHGGVDALDPDHDKPSLIRLAALDDALTRQAIHYVALGDKHSLTQVGSSGRVWYSGAPEVTNFDDVEPDPGHVLVVDIDESDPRHPVTVDARRIGRWRFVTLHHQVDTSRDIADLDLNLDLMTDKDRTVVRLALTGSLTVTDRAALDTCLDKYARLFAWLGLWERHTDLAVIPVDAEFTDLGIGGFAAAAVDELVATARGGDDESAVDAQAALALLLRLADRGAA | not soluble
20 | CNFDCLYCELEGKKATDSMGEVAKVEEILEELREALPRYKPDVITVTANGEPTLYPALLPLIRGINALPHSAKTLILSNGSRFGEPEVQEALLEFDMVKFSLDAVSARAFKRVDRAHDSLSISQIIQGIKGFRSRYRGDLIAEVLFVKGVNDSPEEARAIARVLKEIAPSRVDLSTIDRPPAYKVEGVSPQKLEE | not soluble
21 | LPKPGVYYFPWEVSDGHVPEGSTLRTFGRLYLYDMARSLMTLAAPQKPDQCQLLVCTNLVEPFEAHVNFLYMVLGDLERMEGGAFVVRARLLTCVEGMDLSLLEKAILEQRRHLQKRQQPIGDASTLQTPTPAPQSIPSD | not soluble
22 | MFSGFSSFGGGNGFVNMPQTFEEFFRCYPIAMMNDRIRKDDANFGGKIFLPPSALSKLSMLNIRYPMLFKLTANETGRVTHGGVLEFIAEEGRVYLPQWMMETLGIQPGSLLQISSTDVPLGQFVKLEPQSVDFLDISDPKAVLENVLRNFSTLTVDDVIEISYNGKTFKIKILEVKPESSSKSICVIETDLVTDFAPPVGYVEPDYKALKAQQDKEKKNSFGKGQVLDPSVLGQGSMSTRIDYAGIANSSRNKLSKFVGQGQNISGKAPKAEPKQDIKDMKITFDGEPAKLDLPEGQLFFGFPMVLPKEDEESAAGSKSSEQNFQGQGISLRKSNKRKTKSDHDSSKSKAPKSPEVIEID | soluble
